The values that follow come from publication PMC8373667.

The assay concerns the target JJS-A6/A11 VHH heterodimer, thioredoxin-fused (alpaca (Vicugna pacos)). Description: far-Western, overlay or dot blot.

B1: recombinant Cp-P34 (natural protein)
chain: MSGVSRRAVITDPNGVYEGDVNEKGLKHGNGVYKVNTGDVYEGEYSNGLKNGYGVYTWANGDKFEGYYKDDIKWGHGIYRWSNGEVFEGEYVRGVKCGHGIYTWPNGDRFEGEYKDGVKEGFGVYKLATGRIYEGQYSRDMRNGQGTSRYTDGSVYTGEWFDGKEHGHGLLKFSDSSSYEGDFQNGAPNGQGKYTYSNGNYYVGGFKNGLTDGPGSLTFAEDNRVLKANWKDGQVDGDAAIIYPDGGKYTGEVVNGIRQGKGIMTESNGDIFDGEFFRDFRHGEGILTVNGKQKRVKYNMGKKVGLCSC
For the molecule B1, the percent of VHH binding to the native target blocked by the recombinant protein amounted to 95.2%.
